According to patent US20190218532:

Target: SpCas9::KQ (nuclease-deficient) KQ insertion (Streptococcus pyogenes) (UniProt Q99ZW2)
Assay: cell_activity
Details: PAM TGG; half the fraction of GFP-positive cells of SpCas9

Sequence of UniProt Q99ZW2 (Q99ZW2 whole entry): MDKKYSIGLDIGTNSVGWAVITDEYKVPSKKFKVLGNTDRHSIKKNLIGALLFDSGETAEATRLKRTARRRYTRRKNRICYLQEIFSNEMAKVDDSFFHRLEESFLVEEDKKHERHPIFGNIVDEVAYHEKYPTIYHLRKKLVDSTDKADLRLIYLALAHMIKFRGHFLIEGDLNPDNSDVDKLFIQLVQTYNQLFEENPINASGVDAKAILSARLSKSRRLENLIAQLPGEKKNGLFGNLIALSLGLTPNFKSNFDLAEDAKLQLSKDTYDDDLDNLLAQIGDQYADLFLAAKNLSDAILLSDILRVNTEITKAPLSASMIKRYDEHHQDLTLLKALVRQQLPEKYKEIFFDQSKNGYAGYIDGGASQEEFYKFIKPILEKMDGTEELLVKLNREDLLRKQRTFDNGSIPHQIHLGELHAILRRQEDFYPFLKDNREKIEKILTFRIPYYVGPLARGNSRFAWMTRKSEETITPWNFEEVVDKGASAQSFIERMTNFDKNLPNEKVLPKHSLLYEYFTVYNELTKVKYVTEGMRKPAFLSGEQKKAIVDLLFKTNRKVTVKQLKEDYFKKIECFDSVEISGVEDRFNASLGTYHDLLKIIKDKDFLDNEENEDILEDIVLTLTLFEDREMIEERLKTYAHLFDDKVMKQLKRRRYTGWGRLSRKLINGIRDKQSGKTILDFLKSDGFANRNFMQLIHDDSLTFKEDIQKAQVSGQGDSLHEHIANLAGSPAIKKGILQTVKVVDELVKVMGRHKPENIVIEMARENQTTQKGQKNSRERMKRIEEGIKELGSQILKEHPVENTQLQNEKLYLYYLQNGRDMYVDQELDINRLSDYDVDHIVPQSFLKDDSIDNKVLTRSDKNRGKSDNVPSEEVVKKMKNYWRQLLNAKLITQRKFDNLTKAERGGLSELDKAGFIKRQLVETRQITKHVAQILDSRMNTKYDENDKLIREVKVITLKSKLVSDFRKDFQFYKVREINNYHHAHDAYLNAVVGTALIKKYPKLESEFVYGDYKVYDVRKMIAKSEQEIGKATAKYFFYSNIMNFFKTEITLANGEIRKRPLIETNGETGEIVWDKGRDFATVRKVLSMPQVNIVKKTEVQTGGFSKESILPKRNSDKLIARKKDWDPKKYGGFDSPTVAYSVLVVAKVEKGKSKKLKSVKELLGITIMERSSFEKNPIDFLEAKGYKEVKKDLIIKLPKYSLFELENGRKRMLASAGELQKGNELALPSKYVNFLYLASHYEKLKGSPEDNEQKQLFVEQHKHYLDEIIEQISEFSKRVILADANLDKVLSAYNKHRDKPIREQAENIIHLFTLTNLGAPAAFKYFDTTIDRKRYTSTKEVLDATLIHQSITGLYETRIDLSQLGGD

Sequence: CGAAAGGUUUUGCACUCGAC / CGAAAGGTTTTGCACTCGACTGG / CCAGTCGAGTGCAAAACCTTTCG
- binding signal (fraction of SpCas9 GFP-positive cells): 0.5
